Results reported in patent US20140242093A1, “METHODS AND COMPOSITIONS FOR MODULATING THE INNATE IMMUNE RESPONSE AND/OR MYOGENESIS IN A MAMMALIAN SUBJECT” (FRED HUTCHINSON CANCER RESEARCH CENTER, priority 2011, published 2014).

System: control human primary myoblasts
Assay: Expression microarray of primary myoblasts transduced with lentivirus carrying DUX4-fl, DUX4-s or GFP
Protocol: Primary human myoblasts were collected and cultured as previously described (Snider et al., 2010). Primary myoblasts were maintained at or below 70% confluency for proliferation. For differentiation, cells were allowed to reach 95-100% confluency in growth medium. Once confluency was reached, the cells were changed to differentiation medium (F10 media supplemented with 1% horse serum, 10 μg/mL insulin, and 10 μg/mL transferrin, penicillin/streptomycin) and maintained for 4 days. Human RD cells were grown in DMEM in 10% bovine calf serum (Hyclone) and penicillin/streptomycin. The primary myoblasts were transduced with lentivirus carrying DUX-fl, DUX4- or GFP (MOI=15).
Expression microarrays were performed on the transduced cells at 24 hours after transduction as follows. […] Samples were analyzed by Illumina Human Whole Genome microarrays. Probe intensities were corrected, normalized, and summarized by the Lumi package of Bioconductor (Du et al., 2008). Differentially expressed genes were identified by the LIMMA package of Bioconductor (Wettenhall and Smyth, 2004). Gene set enrichment analysis (GSEA) was performed using the Bioconductor GOstats package (Falcon and Gentleman, 2007).

B1: DUX4-s: short splice form of DUX4 (SEQ ID NO:112), keeps the double-homeobox domains, lacks the C-terminal activation domain (protein, listed as Homo sapiens)
chain: MALPTPSDSTLPAEARGRGRRRRLVWTPSQSEALRACFERNPYPGIATRERLAQAIGIPEPRVQIWFQNERSRQLRQHRRESRPWPGRRGPPEGRRKRTAVTGSQTALLLRAFEKDRFPGIAAREELARETGLPESRIQIWFQNRRARHPGQGGRAPAQV
fc of XPO1 (expression array) (Refseq NM_003400.3): −0.2325 | fc of ZFP36 (expression array) (Refseq NM_003407.2): 0.2317 | ZKSCAN1 fc (Refseq NM_003439.1): 0.3802 | fc of Cxorfl2 (expression array) (Refseq NM_003492.1): 0.03462 | fc of TAGLN2 (expression array) (Refseq NM_003564.1): 0.05495 | fc of EEA1 (expression array) (Refseq NM_003566.2): 1.034 | IFITM1 expression fc (Refseq NM_003641.3, cultured human skeletal muscle): 0.3441 | fc of VAMP8 (expression array) (Refseq NM_003761.2): 0.002691 | fc of VAMP4 (expression array) (Refseq NM_003762.3): 0.4731 | RNGTT expression fc (Refseq NM_003800.3): −0.5916 | RIPK1 fc (Refseq NM_003804.3): −0.2407 | TNFSF10 fc (Refseq NM_003810.2): 2.972 | TNFRSF14 expression fc (Refseq NM_003820.2, cultured human skeletal muscle): 0.5666 | fc of RIOK3 (expression array) (Refseq NM_003831.2): 1.133 | TNFRSF10A fc (Refseq NM_003844.2): 0.8441 | PEX11B fc (Refseq NM_003846.1): −0.2212 | CES2 expression fc (Refseq NM_003869.4, cultured human skeletal muscle): 0.06106 | CFLAR expression fc (Refseq NM_003879.3, cultured human skeletal muscle): 0.5313 | fc of ASAP2 (expression array) (Refseq NM_003887.2): −0.3423 | CCNA1 expression fc (Refseq NM_003914.2): 1.884 | fc of USP13 (expression array) (Refseq NM_003940.2): −1.038 | NPR2 fc (Refseq NM_003995.3): −0.04506 | fc of OSMR (expression array) (Refseq NM_003999.1): 1.118 | CHI3L2 expression fc (Refseq NM_004000.2, cultured human skeletal muscle): 0.2573 | IRF7 expression fc (Refseq NM_004029.2, cultured human skeletal muscle): 1.137 | CRY1 expression fc (Refseq NM_004075.2): −0.1268 | PSPN expression fc (Refseq NM_004158.2): −0.03876 | BEST1 fc (Refseq NM_004183.2): 0.2661 | UBE2L6 expression fc (Refseq NM_004223.3, cultured human skeletal muscle): 0.5808 | fc of STK17B (expression array) (Refseq NM_004226.2): 1.309 | fc of SLC9A3R1 (expression array) (Refseq NM_004252.2): −0.06339 | BST2 expression fc (Refseq NM_004335.2, cultured human skeletal muscle): 0.21 | CREB1 fc (Refseq NM_004379.2): −0.08534 | fc of HOXB7 (expression array) (Refseq NM_004502.3): −0.06124 | SP110 expression fc (Refseq NM_004510.2, cultured human skeletal muscle): 1.154 | PSPH fc (Refseq NM_004577.3): 0.005654 | XPC expression fc (Refseq NM_004628.3, cultured human skeletal muscle): 0.2629 | PABPN1 expression fc (Refseq NM_004643.1): −0.2585 | MAP3K6 fc (Refseq NM_004672.3): −0.2268 | fc of SLC16A5 (expression array) (Refseq NM_004695.2): −0.03968 | fc of SFRS2IP (expression array) (Refseq NM_004719.2): −1.068 | fc of ARHGEF2 (expression array) (Refseq NM_004723.2): −0.07136 | TIAF1 fc (Refseq NM_004740.3): −0.5294 | NOLC1 expression fc (Refseq NM_004741.1): 0.4977 | SLIT2 expression fc (Refseq NM_004787.1): 0.8501 | LPXN fc (Refseq NM_004811.1): −0.0176 | PEX16 fc (Refseq NM_004813.1): 0.02427 | C9orf61 expression fc (Refseq NM_004816.2): −0.2563 | MED26 expression fc (Refseq NM_004831.3): 0.1371 | fc of GSTO1 (expression array) (Refseq NM_004832.1): 0.3142 | fc of LITAF (expression array) (Refseq NM_004862.2): 1.12 | fc of SCAMPI (expression array) (Refseq NM_004866.4): 1.369 | fc of APBA3 (expression array) (Refseq NM_004886.3): 0.001776 | SERPINI1 expression fc (Refseq NM_005025.3): 0.0354 | TRIM25 expression fc (Refseq NM_005082.4, cultured human skeletal muscle): 0.5139 | SFRS17A expression fc (Refseq NM_005088.2): 0.2404 | ISG15 expression fc (Refseq NM_005101.1, cultured human skeletal muscle): 0.128 | MVP fc (Refseq NM_005115.3): −0.1162 | MED13 expression fc (Refseq NM_005121.2): 0.0264 | fc of REC8 (expression array) (Refseq NM_005132.2): −0.244 | ATP6V0A1 fc (Refseq NM_005177.3): −0.04497 | CEBPB expression fc (Refseq NM_005194.2, cultured human skeletal muscle): 0.2783 | ETS1 fc (Refseq NM_005238.2): −0.1783 | FAT1 fc (Refseq NM_005245.3): 0.4055 | GPR37 expression fc (Refseq NM_005302.2): 0.2151 | H1F0 expression fc (Refseq NM_005318.2, cultured human skeletal muscle): 0.5004 | HSPA1A expression fc (Refseq NM_005345.4): −0.02035 | HSPA1B expression fc (Refseq NM_005346.3): 0.359 | NEFM expression fc (Refseq NM_005382.1): 0.8485 | SHMT2 fc (Refseq NM_005412.4): 0.2615 | STAT2 expression fc (Refseq NM_005419.2, cultured human skeletal muscle): 0.1861 | EOMES expression fc (Refseq NM_005442.2): 0.06484 | TOM1 fc (Refseq NM_005488.1): 4.81E−05 | HLA-B expression fc (Refseq NM_005514.5, cultured human skeletal muscle): 0.3367 | HLA-E fc (Refseq NM_005516.4): 0.8147 | IFI16 expression fc (Refseq NM_005531.1, cultured human skeletal muscle): 0.6846 | IFI27 expression fc (Refseq NM_005532.3, cultured human skeletal muscle): 0.2746 | IFI35 expression fc (Refseq NM_005533.2, cultured human skeletal muscle): 0.9169 | IRS1 fc (Refseq NM_005544.1): 0.2753 | KLC1 expression fc (Refseq NM_005552.4): −0.06609 | RGS4 expression fc (Refseq NM_005613.3): −0.4837 | SGK expression fc (Refseq NM_005627.2): −0.1104 | TAF4B expression fc (Refseq NM_005640.1): −0.0444 | fc of TERF2 (expression array) (Refseq NM_005652.2): 0.3314 | fc of REEP5 (expression array) (Refseq NM_005669.4): −1.138 | fc of HIPK3 (expression array) (Refseq NM_005734.3): 1.555 | ARIH1 expression fc (Refseq NM_005744.2): 0.784 | fc of NAMPT (expression array) (Refseq NM_005746.2): 1.21 | LHFPL2 fc (Refseq NM_005779.1): −0.1437 | STX6 expression fc (Refseq NM_005819.4): −0.4696 | fc of RCAN2 (expression array) (Refseq NM_005822.2): −1.005 | MFGE8 fc (Refseq NM_005928.1): 0.03254 | MT1X expression fc (Refseq NM_005952.2, cultured human skeletal muscle): 0.3162 | SNAI1 expression fc (Refseq NM_005985.2): −0.03657 | RBM12 expression fc (Refseq NM_006047.4): −0.3748 | TRIM22 expression fc (Refseq NM_006074.3, cultured human skeletal muscle): −0.01965 | CBARA1 expression fc (Refseq NM_006077.2): −0.1543 | TUBB2C expression fc (Refseq NM_006088.5): −0.5391 | LASP1 fc (Refseq NM_006148.1): −0.4552 | NFE2L2 fc (Refseq NM_006164.2): 0.329 | OAS3 expression fc (Refseq NM_006187.2, cultured human skeletal muscle): 0.8654 | fc of PDGFRL (expression array) (Refseq NM_006207.1): 1.203 | PSME1 fc (Refseq NM_006263.2): 0.2775 | STK3 expression fc (Refseq NM_006281.2): −0.215 | THY1 fc (Refseq NM_006288.2): −0.6444 | TNFAIP3 expression fc (Refseq NM_006290.2, cultured human skeletal muscle): 0.2793 | HSPB3 expression fc (Refseq NM_006308.1): −0.7934 | NXF1 expression fc (Refseq NM_006362.4): −0.3456 | fc of ATG7 (expression array) (Refseq NM_006395.1): 0.2083 | SLC34A2 expression fc (Refseq NM_006424.2): −0.03231 | TXNRD2 fc (Refseq NM_006440.3): −0.1666 | fc of MXD4 (expression array) (Refseq NM_006454.2): −0.9168 | ARID3B expression fc (Refseq NM_006465.2): −0.07455 | TXNIP expression fc (Refseq NM_006472.2, cultured human skeletal muscle): −0.01014 | ZNF217 expression fc (Refseq NM_006526.2): −0.3262 | FAM189B fc (Refseq NM_006589.2): 0.04019 | fc of TCFL5 (expression array) (Refseq NM_006602.2): 0.0336 | RFPL2 expression fc (Refseq NM_006605.1): 0.03122 | fc of NES (expression array) (Refseq NM_006617.1): −1.118 | HSPH1 expression fc (Refseq NM_006644.2): −0.4879 | HCP5 fc (Refseq NM_006674.2): 0.1443 | UGP2 fc (Refseq NM_006759.3): 0.1108 | IFI44L expression fc (Refseq NM_006820.1, cultured human skeletal muscle): 0.4651 | fc of CKAP4 (expression array) (Refseq NM_006825.2): 0.03538 | fc of ILVBL (expression array) (Refseq NM_006844.3): −0.2803 | KDELR3 fc (Refseq NM_006855.2): −0.444 | fc of GMPR (expression array) (Refseq NM_006877.2): 1.36 | SLC2A3 expression fc (Refseq NM_006931.1): 0.1012 | fc of HSPA13 (expression array) (Refseq NM_006948.4): 1.34 | ZBTB25 fc (Refseq NM_006977.2): 0.3463 | ADAMTS1 fc (Refseq NM_006988.3): 0.1765 | C1Oorf10 expression fc (Refseq NM_007021.2, cultured human skeletal muscle): 0.1432 | fc of DNAJB4 (expression array) (Refseq NM_007034.3): 0.413 | KATNA1 expression fc (Refseq NM_007044.2): 0.1132 | UBL3 expression fc (Refseq NM_007106.2): −0.807 | TESK2 expression fc (Refseq NM_007170.2): 0.1269 | NUP50 expression fc (Refseq NM_007172.3): 1.035 | fc of PACSIN2 (expression array) (Refseq NM_007229.1): −0.3253 | DUSP12 expression fc (Refseq NM_007240.1): 0.09869
